Assay [1] concerns the target CoV-2 RBD (N354D) (SARS-CoV-2) (UniProt P0DTC2). Kind of assay: ELISA.
For assay [2], the target named is CoV-2 RBD (N354D, D364Y) (SARS-CoV-2) (UniProt P0DTC2). Kind of assay: ELISA.
Assay [3] addresses CoV-2 RBD (V367F) (SARS-CoV-2) (UniProt P0DTC2). Description: ELISA.
Assay [4] addresses CoV-2 RBD (W436R) (SARS-CoV-2) (UniProt P0DTC2). Kind of assay: ELISA.
In assay [5] the target is CoV-2 S (D614G) (SARS-CoV-2) (UniProt P0DTC2). Kind of assay: ELISA.
Assay [6] deals with CoV-2 S (R683A, R685A) (SARS-CoV-2) (UniProt P0DTC2). Kind of assay: ELISA.
Assay [7] deals with spike of SARS-CoV-2 variant B.1.1.7 (UK) on pseudotype virus (SARS-CoV-2) (UniProt P0DTC2). Kind of assay: cell-based or functional assay.
The target of assay [8] is spike of SARS-CoV-2 variant B.1.351 (South Africa) on pseudotype virus (SARS-CoV-2) (UniProt P0DTC2). Description: cell-based or functional assay.
The target in assay [9] is spike of SARS-CoV-2 variant B.1.427/B.1.429 (California) on pseudotype virus (SARS-CoV-2) (UniProt P0DTC2). Description: cell-based or functional assay.
For assay [10], the target named is spike of SARS-CoV-2 variant P.1 (Japanese/Brazilian) on pseudotype virus (SARS-CoV-2) (UniProt P0DTC2). Kind of assay: cell-based or functional assay.

Turning to IVIG (Gamunex; Grifols) (antibody), the EC50 was found to be 1240 µg/mL in assay [1]; 1320 µg/mL in assay [2]; 1130 µg/mL in assay [3]; 1240 µg/mL in assay [4]; 1330 µg/mL in assay [5]; 2840 µg/mL in assay [6].

Turning to “rCIG (recombinant coronavirus-2 immune globulin; recombinant anti-coronavirus 19 hyperimmune gammaglobulin) (antibody)”, the EC50 in [1] was 0.07 µg/mL; in assay [2], 0.08 µg/mL; in [3], 0.07 µg/mL; in [4] it was 0.07 µg/mL; in [5], 0.05 µg/mL; in assay [6], 0.09 µg/mL. Moreover, the pseudotype virus neutralization IC50 relative to Wuhan-Hu-1 in [7], in assay [8], in [9] and in [10] was less than 6 fold in each case.
